Experimental findings from publication PMC3423979 (Nature chemical biology, 2012) are described below.

Where no end group is shown, it is not given here. [ ]: non-standard residue; d: D form. pY = N[C@@H](Cc1ccc(OP(=O)(O)O)cc1)C(=O)O

The target of assay [1] is CrkL SH2 (residues 1–105) (human) (UniProt P46109). As to the kind of experiment: ITC.
The target of assay [2] is full-length CrkL (residues 1–303) (human) (UniProt P46109). In words: ITC.
Assay [3] addresses full-length CrkL (residues 1–303) (human, UniProt P46109 1-303). In words: NMR titration.
In assay [4] the target is CrkL SH3^N (residues 120–188) (human, UniProt P46109 120-188). As to the kind of experiment: ITC.
Assay [5] has as its target phosphorylated (pTyr207) CrkL (human, UniProt P46109 1-303, phosphotyrosine at 207 (pTyr207)). As to the kind of experiment: ITC.
In assay [6] the target is CrkL SH2 (residues 1–105) (human, UniProt P46109 1-105). In words: ITC.
CrkL SH2 (residues 1–105), sequence (P46109 1-105): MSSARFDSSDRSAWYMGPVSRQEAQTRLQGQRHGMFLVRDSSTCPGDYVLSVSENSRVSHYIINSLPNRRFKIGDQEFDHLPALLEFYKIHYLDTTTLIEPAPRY

full-length CrkL (residues 1–303) (human), sequence (P46109 whole entry, the tested form may be a part): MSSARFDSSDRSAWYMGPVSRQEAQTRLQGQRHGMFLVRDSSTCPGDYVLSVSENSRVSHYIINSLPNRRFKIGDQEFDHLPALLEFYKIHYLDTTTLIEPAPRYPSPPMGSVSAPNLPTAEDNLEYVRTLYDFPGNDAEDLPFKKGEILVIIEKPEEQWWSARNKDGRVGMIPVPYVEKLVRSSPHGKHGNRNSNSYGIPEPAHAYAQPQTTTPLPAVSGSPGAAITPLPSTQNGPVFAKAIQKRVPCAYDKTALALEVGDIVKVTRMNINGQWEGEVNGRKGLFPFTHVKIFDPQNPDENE
phosphorylated (pTyr207) CrkL, sequence (P46109 whole entry, the tested form may be a part): as above
full-length CrkL (residues 1–303), sequence (P46109 whole entry, the tested form may be a part): as above
CrkL SH2 (residues 1–105) (human), sequence (P46109 1-105): as the sequence (P46109 1-105) above
CrkL SH3^N (residues 120–188), sequence (P46109 120-188): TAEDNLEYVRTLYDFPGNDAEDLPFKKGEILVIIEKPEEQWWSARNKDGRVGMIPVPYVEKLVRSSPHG

With CrkL-pTyr207-peptide, the Kd was determined as 7 µM in assay [1] and 23 µM in assay [2].

B1: PPII-peptide (peptide)
peptide: YLQAPELPTKTRTS
Turning to B1, the binding result in assay [3], in assay [4] and in assay [5] was “binds” each time.

B2: FGFR-pTyr-peptide (peptide)
peptide: AGVSE[pY]ELPEDPR
For B2, the binding result in assay [6] was “binds”.
